In publication PMC6555819, “Comprehensive study of nuclear receptor DNA binding provides a revised framework for understanding receptor specificity”:

These binders were tested against LXRb:RXRa (Homo sapiens, UniProt P55055;P19793 full;full) (assay: no ligand; PBM; 270 nM : 90 nM RXRa; PBS pH 7.4, 2% milk, 0.02% Triton X-100, 1 mM DTT, BSA, 0.4 mg/ml salmon testes DNA). Conditions: tags: His kept;His cleaved; copies: 1;1; label: surface-attached array probe.
Method in brief: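 For binding z-scores, the reference was random background probes on custom Agilent 4×180K protein-binding microarrays. These arrays were incubated 1 h with ligand-free nuclear receptor dimers in PBS pH 7.4, 2% milk, 0.02% Triton X-100, 1 mM DTT, 0.2 mg/mL BSA and 0.4 mg/ml salmon testes DNA. Fluorescence was scanned after antibody detection of each partner (one per run) and regression-normalized.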

LXRb:RXRa, sequence (P55055 whole entry, chain 1 of 2): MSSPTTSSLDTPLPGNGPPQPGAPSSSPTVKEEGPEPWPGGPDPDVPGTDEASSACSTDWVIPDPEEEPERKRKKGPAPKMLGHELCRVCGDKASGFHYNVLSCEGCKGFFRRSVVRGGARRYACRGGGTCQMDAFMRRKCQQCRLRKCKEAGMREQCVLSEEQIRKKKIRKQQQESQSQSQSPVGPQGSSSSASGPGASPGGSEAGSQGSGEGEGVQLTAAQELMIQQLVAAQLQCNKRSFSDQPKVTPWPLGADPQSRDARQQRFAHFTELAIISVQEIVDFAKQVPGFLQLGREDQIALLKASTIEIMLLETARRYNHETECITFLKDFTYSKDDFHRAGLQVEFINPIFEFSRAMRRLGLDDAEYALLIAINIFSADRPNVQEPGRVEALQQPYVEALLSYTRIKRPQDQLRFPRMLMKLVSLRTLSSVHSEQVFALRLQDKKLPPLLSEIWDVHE
LXRb:RXRa, sequence (P19793 whole entry, chain 2 of 2): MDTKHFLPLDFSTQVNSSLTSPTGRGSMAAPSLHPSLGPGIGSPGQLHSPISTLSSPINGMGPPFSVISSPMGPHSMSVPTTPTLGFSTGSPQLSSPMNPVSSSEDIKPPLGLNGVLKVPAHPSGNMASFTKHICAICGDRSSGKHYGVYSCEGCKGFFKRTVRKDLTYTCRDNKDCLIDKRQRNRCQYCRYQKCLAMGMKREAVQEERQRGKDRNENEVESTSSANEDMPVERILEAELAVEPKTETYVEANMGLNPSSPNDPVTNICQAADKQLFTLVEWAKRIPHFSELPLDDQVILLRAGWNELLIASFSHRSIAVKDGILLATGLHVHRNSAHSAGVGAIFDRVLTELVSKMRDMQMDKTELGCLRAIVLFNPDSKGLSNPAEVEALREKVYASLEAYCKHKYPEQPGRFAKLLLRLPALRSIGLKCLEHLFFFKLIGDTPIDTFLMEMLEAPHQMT

Binder | binding signal
NRC3_wobSeed21_DR0_C21A_o1 (dsDNA) DNA 1: GCCGTCAAAGTTCAAGGTAAAGTAACAGAAAGCAGCGCGATTGACAGCGTAGAATGAAGG DNA 2: CCTTCATTCTACGCTGTCAATCGCGCTGCTTTCTGTTACTTTACCTTGAACTTTGACGGC | 3.04 PBM z-score against 500 random probes
NRC3_wobSeed21_DR0_C13A_o1 (dsDNA) DNA 1: GCCGTCAAAGTTAAAGGTAACGTAACAGAAAGCAGCGCGATTGACAGCGTAGAATGAAGG DNA 2: CCTTCATTCTACGCTGTCAATCGCGCTGCTTTCTGTTACGTTACCTTTAACTTTGACGGC | 0.26 PBM z-score against 500 random probes
NRC3_wobSeed4_DR0_T8A_o1 (dsDNA) DNA 1: GCCCTACAGGGCCAAGGTCATTGATCAGTCAAAGCAGCGATTGACAGCGTAGAATGAAGG DNA 2: CCTTCATTCTACGCTGTCAATCGCTGCTTTGACTGATCAATGACCTTGGCCCTGTAGGGC | 3.02 PBM z-score against 500 random probes
NRC3_wobSeed113_DR4_G20A_o1 (dsDNA) DNA 1: GCATATGTAGGTTAGCTGGAGTCATTCAGACTAGGCGCGATTGACAGCGTAGAATGAAGG DNA 2: CCTTCATTCTACGCTGTCAATCGCGCCTAGTCTGAATGACTCCAGCTAACCTACATATGC | 0.16 PBM z-score against 500 random probes
NRC3_random_hg19_472_o1 (dsDNA) DNA 1: GCTGATGGGCTTCAAGTTGCTAACCCAGGAAATGGAGCGATTGACAGCGTAGAATGAAGG DNA 2: CCTTCATTCTACGCTGTCAATCGCTCCATTTCCTGGGTTAGCAACTTGAAGCCCATCAGC | -0.26 PBM z-score against 500 random probes
NRC3_wobSeed53_DR2_C13A_o1 (dsDNA) DNA 1: GCCCTTACGGGTAACGAGGTTATAGCACGACGAGCGGCGATTGACAGCGTAGAATGAAGG DNA 2: CCTTCATTCTACGCTGTCAATCGCCGCTCGTCGTGCTATAACCTCGTTACCCGTAAGGGC | 0.41 PBM z-score against 500 random probes
NRC3_wobSeed70_DR2_o1 (dsDNA) DNA 1: GCGTACCAAGGTGAATAGGTCGTTGATGAGTAGGCGGCGATTGACAGCGTAGAATGAAGG DNA 2: CCTTCATTCTACGCTGTCAATCGCCGCCTACTCATCAACGACCTATTCACCTTGGTACGC | 0.5 PBM z-score against 500 random probes
NRC3_wobSeed116_DR4_C15G_o1 (dsDNA) DNA 1: GCAGAATGAGGTTAGCAAAGATCAGGGAAACGCTTGGCGATTGACAGCGTAGAATGAAGG DNA 2: CCTTCATTCTACGCTGTCAATCGCCAAGCGTTTCCCTGATCTTTGCTAACCTCATTCTGC | 0.41 PBM z-score against 500 random probes
NRC3_wobSeed114_DR4_C13G_o1 (dsDNA) DNA 1: GCAATACAGGGTGATCGTAGGCCAGAGTACGCACAGGCGATTGACAGCGTAGAATGAAGG DNA 2: CCTTCATTCTACGCTGTCAATCGCCTGTGCGTACTCTGGCCTACGATCACCCTGTATTGC | 0.1 PBM z-score against 500 random probes
NRC3_wobSeed82_DR3_T25A_o1 (dsDNA) DNA 1: GCATCGAAAGGTCGACGAGGTGAGAATACACCGTTTGCGATTGACAGCGTAGAATGAAGG DNA 2: CCTTCATTCTACGCTGTCAATCGCAAACGGTGTATTCTCACCTCGTCGACCTTTCGATGC | 3.13 PBM z-score against 500 random probes
NRC3_wobSeed58_DR2_T26C_o1 (dsDNA) DNA 1: GCATCGAAAGGTCGTGAGGTGAGTACACAGAAAGGCGCGATTGACAGCGTAGAATGAAGG DNA 2: CCTTCATTCTACGCTGTCAATCGCGCCTTTCTGTGTACTCACCTCACGACCTTTCGATGC | 3.15 PBM z-score against 500 random probes
NRC3_wobSeed58_DR2_G18A_o1 (dsDNA) DNA 1: GCATCGAAAGGTCGTGAAGTGAGTATACAGAAAGGCGCGATTGACAGCGTAGAATGAAGG DNA 2: CCTTCATTCTACGCTGTCAATCGCGCCTTTCTGTATACTCACTTCACGACCTTTCGATGC | 3.09 PBM z-score against 500 random probes
NRC3_wobSeed88_DR3_C21T_o1 (dsDNA) DNA 1: GCTAGCCTAGGTCATGCGGGTCAGTATAGTGTCGGCGCGATTGACAGCGTAGAATGAAGG DNA 2: CCTTCATTCTACGCTGTCAATCGCGCCGACACTATACTGACCCGCATGACCTAGGCTAGC | 3 PBM z-score against 500 random probes
NRC3_random_hg19_193_o1 (dsDNA) DNA 1: GCTGGAAGATGAAGAAGAACTATTGCTCGATGGAGAGCGATTGACAGCGTAGAATGAAGG DNA 2: CCTTCATTCTACGCTGTCAATCGCTCTCCATCGAGCAATAGTTCTTCTTCATCTTCCAGC | -0.54 PBM z-score against 500 random probes
NRC3_wobSeed5_DR0_G23C_o1 (dsDNA) DNA 1: GCCCTTACGGGTCAAGGTTATACCACGGGTGGTACGGCGATTGACAGCGTAGAATGAAGG DNA 2: CCTTCATTCTACGCTGTCAATCGCCGTACCACCCGTGGTATAACCTTGACCCGTAAGGGC | 3.06 PBM z-score against 500 random probes
NRC3_wobSeed133_DR5_C13A_o1 (dsDNA) DNA 1: GCCGTCCAAGGTAAATGCTAGGTCAGTGAAAGCATTGCGATTGACAGCGTAGAATGAAGG DNA 2: CCTTCATTCTACGCTGTCAATCGCAATGCTTTCACTGACCTAGCATTTACCTTGGACGGC | 0.46 PBM z-score against 500 random probes
NRC3_wobSeed133_DR5_T12G_o1 (dsDNA) DNA 1: GCCGTCCAAGGGCAATGCTAGGTCAGTGAAAGCATTGCGATTGACAGCGTAGAATGAAGG DNA 2: CCTTCATTCTACGCTGTCAATCGCAATGCTTTCACTGACCTAGCATTGCCCTTGGACGGC | 0.44 PBM z-score against 500 random probes

Binder | binding signal
NRC3_random_hg19_405_o1 (dsDNA) DNA 1: GCAGCGCACCAGCATGGCACATGTATACATATGTAAGCGATTGACAGCGTAGAATGAAGG DNA 2: CCTTCATTCTACGCTGTCAATCGCTTACATATGTATACATGTGCCATGCTGGTGCGCTGC | -0.44 PBM z-score against 500 random probes
NRC3_wobSeed27_DR1_C20G_o1 (dsDNA) DNA 1: GCACTCGGAGGACAAAGGTGAGAGCTACGCCAGTGAGCGATTGACAGCGTAGAATGAAGG DNA 2: CCTTCATTCTACGCTGTCAATCGCTCACTGGCGTAGCTCTCACCTTTGTCCTCCGAGTGC | 0.32 PBM z-score against 500 random probes
NRC3_wobSeed27_DR1_C20A_o1 (dsDNA) DNA 1: GCACTCGGAGGACAAAGGTAAGAGCTACGCCAGTGAGCGATTGACAGCGTAGAATGAAGG DNA 2: CCTTCATTCTACGCTGTCAATCGCTCACTGGCGTAGCTCTTACCTTTGTCCTCCGAGTGC | -0.49 PBM z-score against 500 random probes
NRC3_wobSeed118_DR4_G15A_o1 (dsDNA) DNA 1: GCTTACCAAGGTGAACTGAGGTCGTTGATCCAACTCGCGATTGACAGCGTAGAATGAAGG DNA 2: CCTTCATTCTACGCTGTCAATCGCGAGTTGGATCAACGACCTCAGTTCACCTTGGTAAGC | 3.08 PBM z-score against 500 random probes
NRC3_random_hg19_97_o1 (dsDNA) DNA 1: GCAAAGGCCTGAGAACCAGGACCTCCAGTGTCCTCAGCGATTGACAGCGTAGAATGAAGG DNA 2: CCTTCATTCTACGCTGTCAATCGCTGAGGACACTGGAGGTCCTGGTTCTCAGGCCTTTGC | -0.68 PBM z-score against 500 random probes
NRC3_wobSeed2_DR0_A20C_o1 (dsDNA) DNA 1: GCCCTAGTTGGTCAAGGTCCCACACGCTATAGGTACGCGATTGACAGCGTAGAATGAAGG DNA 2: CCTTCATTCTACGCTGTCAATCGCGTACCTATAGCGTGTGGGACCTTGACCAACTAGGGC | 0.48 PBM z-score against 500 random probes
NRC3_wobSeed50_DR2_G18A_o1 (dsDNA) DNA 1: GCCCTAGTTGGTCAGGAAGTCACACACCGGATATGAGCGATTGACAGCGTAGAATGAAGG DNA 2: CCTTCATTCTACGCTGTCAATCGCTCATATCCGGTGTGTGACTTCCTGACCAACTAGGGC | 0.38 PBM z-score against 500 random probes
NRC3_wobSeed136_DR5_A9C_o1 (dsDNA) DNA 1: GCTAGCCTCGGTCATTCAGGGGCCAGTATAGAAAGCGCGATTGACAGCGTAGAATGAAGG DNA 2: CCTTCATTCTACGCTGTCAATCGCGCTTTCTATACTGGCCCCTGAATGACCGAGGCTAGC | 0.42 PBM z-score against 500 random probes
NRC3_wobSeed42_DR1_G11A_o1 (dsDNA) DNA 1: GCTATACAGGATCAAAGGCCAGAGTACGAATGTCGAGCGATTGACAGCGTAGAATGAAGG DNA 2: CCTTCATTCTACGCTGTCAATCGCTCGACATTCGTACTCTGGCCTTTGATCCTGTATAGC | 0.47 PBM z-score against 500 random probes
NRC3_random_hg19_71_o1 (dsDNA) DNA 1: GCCATGTCACCTCCCTGAGGTGCAGTTTGCTTCAAGGCGATTGACAGCGTAGAATGAAGG DNA 2: CCTTCATTCTACGCTGTCAATCGCCTTGAAGCAAACTGCACCTCAGGGAGGTGACATGGC | 0.34 PBM z-score against 500 random probes
NRC3_random_hg19_86_o1 (dsDNA) DNA 1: GCAAACAAGGAGGAGAGGTGTTCTGGAGAACTGCTTGCGATTGACAGCGTAGAATGAAGG DNA 2: CCTTCATTCTACGCTGTCAATCGCAAGCAGTTCTCCAGAACACCTCTCCTCCTTGTTTGC | 0.18 PBM z-score against 500 random probes
NRC3_wobSeed100_DR4_C23G_o1 (dsDNA) DNA 1: GCCCTACTGGGCCACGAAAGGTGATTGATTCAGTGAGCGATTGACAGCGTAGAATGAAGG DNA 2: CCTTCATTCTACGCTGTCAATCGCTCACTGAATCAATCACCTTTCGTGGCCCAGTAGGGC | -0.2 PBM z-score against 500 random probes
NRC3_random_hg19_65_o1 (dsDNA) DNA 1: GCATGGTGATGAAAGCAAAGGAGTAATGTTTCTGTGGCGATTGACAGCGTAGAATGAAGG DNA 2: CCTTCATTCTACGCTGTCAATCGCCACAGAAACATTACTCCTTTGCTTTCATCACCATGC | 0.22 PBM z-score against 500 random probes
NRC3_random_hg19_477_o1 (dsDNA) DNA 1: GCAACAAACTTCCTTGCTCTAGTTCATCAGCAATGAGCGATTGACAGCGTAGAATGAAGG DNA 2: CCTTCATTCTACGCTGTCAATCGCTCATTGCTGATGAACTAGAGCAAGGAAGTTTGTTGC | 0.49 PBM z-score against 500 random probes
NRC3_random_hg19_61_o1 (dsDNA) DNA 1: GCGCAGAGGTTGCAATGAGCCAAGATTGTACCACTGGCGATTGACAGCGTAGAATGAAGG DNA 2: CCTTCATTCTACGCTGTCAATCGCCAGTGGTACAATCTTGGCTCATTGCAACCTCTGCGC | -0.15 PBM z-score against 500 random probes
NRC3_random_hg19_39_o1 (dsDNA) DNA 1: GCGGGCAACTCGTTCGACTCAGGGAGCTATGGGTAGGCGATTGACAGCGTAGAATGAAGG DNA 2: CCTTCATTCTACGCTGTCAATCGCCTACCCATAGCTCCCTGAGTCGAACGAGTTGCCCGC | -0.61 PBM z-score against 500 random probes
